Assay: yeast display, Sf9 membrane polyspecificity reagent, FACS + sequencing; frameworks hold sequencing errors
Procedure, shortened: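 A nanobody's polyreactivity label depends on the gate it was sorted from. Yeast display cells were stained with 10% biotinylated, detergent-solubilized Sf9 membrane reagent for 1 hour at 4 °C, enriched on streptavidin microbeads and sorted by FACS. The low and high (top ~1%) gates were set on anti-HA fluorescence for expression and streptavidin fluorescence for reagent binding.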

Row | Sequence | polyreactivity (PSR sort gate)
1 | QVQLQESGGGLVQVGGSLRLSCAASGTIFNYGFLGRNRQAPGKERELVASINLGGITNYADSVKGRFTISRDNAKNTVYLQMISLKPEDTAVYYCAAYVVTGQNYGYWGQGTQVTVSS | low polyreactivity
2 | QVQLVESGGGLVQAGGSLRLSSAASGSTFDSNAMGWYRQAPGKERELVAAIDYSSDSTYYADSVKGRFTISRDNAKNTVYLQMNSLKPEDTAVYYCAAVAYIFCARYGYNYWGQGTQVTVSS | low polyreactivity
3 | QVQLVESGGGLVQAGGSLRLSCAASGNIFWGNAMGWYRQAPGKERELVATITTGGSTNYADSVKGRFTISRDNAKNTVYLQMNSLKPEDTAVYYCNKRTTTASHLTSDYWGQGTQVTVSS | low polyreactivity
4 | QVQLVESGGGLVQAGGSLRLSCAASGSTFAYYAMGWYRQAPGKERELVAAISWSGGSTYYADSVKGRFTISRDNAKNTVYLQLNSLKPEDTAVYYCAAGVPSTFQYSYWDYNYWGQGTQVTVSS | low polyreactivity
5 | QVQLVESGGGLVQAGGSLRLSCAASGSTFPSNAMGWYRQAPGKERELVAAIRGRGGSTYYADSVKGRFTISRDNAKNTVYLQMNSLKPEDTAVYYCAKKVRSYVRWEYDYWGQGTQVTVSS | low polyreactivity
6 | QVQLVESGGGLVQAGGSLRLSWAASGSNFDAYAMGWYRPAPGKERELVAAINARGGSTYYADSVKGRFTISRDNAKNTVYLQMNSLKPEETAVYDCNRLSRVRRYIYDYWGQGTQVTVSS | high polyreactivity
7 | QVQLVESGGGLVQAGGSLRLSCAASGLLFGRNVMGWYRQGPGKERELVAAISWSGGRTYYADSVKGRFTISRDNAKNTVYLQMNSLKPEDTAVYYCAADDGPGFDYWGQGTQVTESS | high polyreactivity
8 | QVQLVESGGGLVQAGGSLSLSCAASGLILSDNAMGWYRQAPGKEREFVASITSSGGSTHYADSVKGRFTISRDNAKNTVYFQMNSLKPEDTAVYYCAKDYYEGDSYPYPGYEYWGQGTQVTVSS | low polyreactivity
9 | QVQLVESGGGLAQAGGSLRLSCAASGNIFRINGMGWYRQAPGKERELVASITRSGSTYYADSVKGRFTISRDNAKNTVYLQMNSLKPEDTAVYFCAADSRRYGVRFDYWGQGTQVTVSS | low polyreactivity
10 | QVQLVESGGGLVQAGGSLRLSCADSGRTIYRNGMGWYRKAPGKEREFVAAINYRGGSTNYADSVKWRFTISRDKAKNTVYLQMNSLKPEDTAVYYCATRIFRAALRFDYWGQGTQVTVSS | high polyreactivity
11 | QVQLVESGGGLVQAGGSLRLSCAASGSIFGYYAMGWYRQAPGKEREFVATISTSGVSTYYADSVKGRFTISRDNAKNTVYLQMNSLKPEDTAVYYCNAYLWYTGWDYDGEDYWGQGTQVTVSS | low polyreactivity
12 | QVQHVESGGGLVQPGGSLRLSCAASGNAMGWYRQAPGKERELVASINRSGGRTYYADSVKGSYTISRDNAKNTVYLQMNSLKPEDTAVYYCAARPHYDSDYWGQGTQVTVSS | low polyreactivity
13 | QVHLVESGGGLVQAGGSLRLSCAASGTIFGINAMGWYRQAPGKERELVAGITSGGSTYYADSLKGRFTISRDNAKNTVDLQMNILKPEDTAVYYCAAVANQWYTEREYWGQGTQVTVSS | low polyreactivity
14 | QVQLVESGGGLVQAGGSLRLSCAPSGRIFKRNTMGWYRQAPGKVRELVAAITGSSGSTYYADSVKGRFTISRDNAKNNVLLQMNSLKPEDTAVYYCNTVRSVYQYWPYNYWGQGTQETVSS | high polyreactivity
15 | QVQLVESGGGLVQAGGSLRLSCAASGRIFRWYAMGWYRQAPGKERELVAAISSSGGSTYYADSVKGRFTISRDNAKINVYLQMKSLKPEDTAVYYCNAEAVAYWSVPYNYWGQGTQVTVSS | high polyreactivity
16 | QVQLQESSGGLVQAGGSLRMGCAASGTIFHFHIMGWYRPAPGKEREFVAAISYGTSTYYADSVKGRFTISRDNAKNTVYLQMNSQKPEDTAVYYCAVYDYLEVYCWYWGQGTQVNVSS | low polyreactivity

Row | Sequence | polyreactivity (PSR sort gate)
17 | QVQLVESGGVLVQAGGSLRLSCAASGRTFNAYTMGWYRQAPGKERELVAAITSSGGNTYYADSVKGRFTITRDNGKNTVFLQMNSLKPEDTAVYYCNTVYLYGTHDYWGQGTQLTVSS | low polyreactivity
18 | QVQLVESGGGLVQAGGSLRLSCAASGRTFGWYDMGWYRQAPGKERELVAAISWSGSSTYYADSVKGRFTISRDNAKNTVYLQMNSLKPEDNAVYYFNDVIRSDLFSYLDGRYDYWGQGTQVTVSS | high polyreactivity
19 | QDQLVESAGGLVQAGGSLRLTCAASGFIFADNAMGWYRQAPGKERELVAGITSGGITYYADSVKGRFTISRDNAKNTVYLQMNCLKPEDTAVYYCNTTSYPEFDYWGHGTQVTVSS | low polyreactivity
20 | QVQLVESGGGLVQSGGSLRLSCAASGRIFDENAMGWYRQAPGKERELVAAITGGDSTNYADSVKGRFTISRDNAKNTVYLQMNSLKPEDTAVYYCAVDVIYYWAEDYDYWGQGTQVTVSS | low polyreactivity
21 | QVQLVESGGGLVQAGGSLRLSCAASGSIFGYNAMGGYRHAPGKEREFVAAINSGGSTYYADSVKGRFTISRDNAKITVYLQLNSLKPEDTAVYYCRRRNVYSTRRYEYWGQGTQVTVSS | high polyreactivity
22 | QVQLVESGGGLVQAGGSLRLSCAASGRTFNGYVMGWYRQAPGKEREFVAVINWSGGNTYYADSVKGRFTISRDNAKNTVNLQMNSLKPEDTAVYYCAARRVRSYAYDYWGQGTQVTVSS | high polyreactivity
23 | QVQLVESGGGLVQAGGSLRLSCAASGRTFNGNAMGWYRQAPGKERELVAGISTSDGSTYYADSVKGRFTISRDNAKNTVYLQMNSLKPVDTAVYDCAAYSHHQFSSSEYYYWGQGTQLTVSS | low polyreactivity
24 | QVQLVESGGGLVQAGGSLRLSCAASGRIFVYYAMGWYSQAPGKERELVASISYSGASTYYADSVKGRFTISRDNAKNTVYLQMNSLKPEDTAVYYCNTDGDDFFHVIYDYWGQGTQVTVSS | low polyreactivity
25 | QVQLVESGGGLVQAGGSLRLSCAASGIISAGYAMGWYRQAPGKERELVAAISTSGTSTYYADSVKGRFTISRDNAKNTVYLQMNSLKPEDTAVYYCAYTYYYGVGYYYWGQGTQVTVSS | low polyreactivity
26 | QVQLVESGGVLVQAGGSLRLSCAASGLNLAPNAMGWYRQAPGKEMELVAAITRSGGDTYYADSVKGRFTISRENAKNTVYLQMNSLKPEDTAVYYCAKARPGFLYDHWGQGTQVTVSS | high polyreactivity
27 | QVQLVESGGGLVQAGGSLRLSCAASGSTFQSYAMGWYRQAPGKERELVARIRNSGGSTYYADSVKGRFTISRDNAKNTVYLQMNSLKPEDTAVYYCNARYVSRYLTYQYDYWGQGTQVTVSS | high polyreactivity
28 | QVQLVESGGGLVQAGGSLRLICAASGRTFPRYTMGWYRQEPGNERELVAAISWRGGRTYYADSVKGRFTISLDNAKNTVYLLMNSLKPEDTAVYYCNAQKRDGSMGYWGQGTQVTVSS | high polyreactivity
29 | QGQLVESGGGLVQAGGSLRLSCAASGFTFARNVMGWSRQAPGTERELVAAITTSGGSTYYADSVKGRFTISRDNAKNTVYLQMNSLKPEDTAVYYCARRVYGYYIPYNYWGQGTQVTVSS | high polyreactivity
30 | QVQRVESGRGLVHAGGRLRLSCAASGSIFTYYPMGWSRPAPGKERELVAAISYSGGTTYYADSVKGRFTISRDNAKNTVYLQMNSLKPEDTAVYYCNVDADYESKWLSVGYDYWGQGTQVTVSS | low polyreactivity
31 | QVQLVESGGGLVQAGGSLRLSCAASGFIFLSNAMGWYRQAPGKERELVAAITSGGSTNYADSVKGRFTISRDNAKNTVYLQMNSLKPEDTAVYYCAARAPQWTFALGRWDRDYWGQGTQVTVSS | low polyreactivity
32 | QVQHVESGGGLVQAGGSLRLSCAASGRTLRYYAMGGYRRAPGKERELVAAITKSGGSPYYADSVKGRFTISRDNAKNTVYLQMYSLKPEDTAVYYCNKVTYSRAQYIGGAGYYWGQGTQVTVSS | high polyreactivity

Reference: the nanobody polyreactivity screen of Harvey et al. (2022)
